This is an account of results in patent publication US20230064978A1, “CYCLIC PEPTIDE RECEPTOR LANTHIONINE SYNTHETASE C-LIKE PROTEIN (LANCL) AND USES THEREOF” (LATERAL IP PTY LTD, priority 2019, published 2023).

Entries after “also recorded” stand apart in the source; their conditions may differ. Bridges are numbered along the chain shown (N, C = ends). Where no end group is shown, it is not given here.

One assay deals with DRG neurons. Briefly: Confocal microscopy of PAL probe binding in DRG cell cultures, spinal nerve ligation model. It is filed as cell-based, Sprague Dawley rats. Particulars: specificity control; excess unlabeled competitor. An excerpt:
LAT9991-PAL was used in conjunction with confocal microscopy to visualise the location of potential target(s), noting that analgesic agents can have activity at several sites, either on central or peripheral neurons, or on glial or inflammatory cells that are in proximity to neurons. To identify the cell types to which LAT9991-PAL binds, 3-day cell cultures of DRG from neuropathic or control sites were taken from animals with neuropathy due to spinal nerve ligation. Briefly, L5 and L6 spinal nerves of male Sprague Dawley rats were ligated to create a robust and long-lasting mechanical allodynia of the injured hind paw. Presence of neuropathic pain was confirmed 2 weeks post-spinal nerve ligation surgeries (day 14) using von Frey (VF) filaments (up-and-down method) applied on ipsilateral (injured) and contralateral (non-injured) paw). Live DRG cells were dissected out as described previously and incubated with LAT9991-PAL for 1 hour prior to UV irradiation to fix the binding in situ. […] As a specificity control, the binding of LAT9991-PAL to the neuropathic DRG was blocked in the presence of an excess amount of unlabeled LAT9991 peptide.

The next assay concerns the target T1, human recombinant LANCL1 (Homo sapiens, UniProt O43813).
T1 construct: purchased ABCAM ab181923; host or cells: E. coli
Briefly: In-gel fluorescence: photolabelling of recombinant LANCL1 with PAL probes, with or without excess competitor. It is filed as binding. As for the experimental part:
The in-gel fluorescence protocol can be briefly described as follows:
1. LANCL1 Labelling, Assay on 96 Well Plate, Volume of the Reaction 40 μl in PBS
3 μg/well of human recombinant LANCL1 (ABCAM catalog no. ab181923, 1 mg/ml; expressed in E. Coli and incorporating an N-terminal 23 amino acid hexaHis tag; UniProtKB/Swiss-Prot Accession no: O43813);
• Vehicle DMSO • ±LAT8881 (a cyclic peptide fragment of human growth hormone; SEQ ID NO:1) • SEQ ID NO:1) as competitor @ 25, 50, 100 or 200 μM, pre-incubation 10 min, 4 μl of a stock solution 10-fold concentrated • ±LAT9991-PAL, LAT7771-PAL or LAT9993-PAL probes @ 1 μM, incubation 30 min at room temperature on a plate agitator (protected from light), 4 μl of a stock solution @10 μM
• Irradiation @ 365 nm 20 min (4° C., on a support containing ice) Transfer 40 μl in a clean Eppendorf tube
• Reduction: DTT 10 mM, 30 min @ 56° C. • Alkylation: Iodoacetamide 30 mM, 45 min @ RT Click-iT AzideTamra of 60 μL samples
• Acetone Precipitation −20° C. ON • Dry pellet resuspended in 30 μL 1% SDS in 50 mM Tris-HCl pH 7.5 • Photolabeled LANCL1 was tagged with tetramethylrhodamine (TAMRA) azide @100 μM TAMRA azide by copper click chemistry using the Click-iT Protein Reaction Buffer Kit (ThermoFisher Scientific) during 30 minutes • Precipitation using the chloroform-methanol method, pellet was air-dried for 10 min at room temperature, resuspended in 30 μL SDS loading buffer (Bio Rad's XT Sample Buffer containing 2.5% v/v 2-mercaptoethanol) and heated (60° C., 30 min)
(§1) • SDS-PAGE (4-15% Criterion™ TGX Stain-Free™ Protein Gel, Bio Rad) • Analyzed by in-gel fluorescence scanning using a ChemiDoc™ MP Imaging System (Bio Rad) with a green LED light as an excitation source and a BP600/20 nm emission filter

A further assay concerns the target LANCL1 (Rattus norvegicus, UniProt Q9QX69). Kind of assay: Mass spectrometry of excised gel bands from PAL cross-linked homogenates (PALMS). Particulars: vs un-crosslinked samples (CU) and samples with excess LAT8881 (COMP); 37 kDa band. Set-up: from tissue; host or cells: nerve tissue homogenate of neuropathic animals. It counts as binding. From the text: Having identified at least three molecular weight bands as representative of the potential targets, the 12-15 kD, 37 kD and 50 kD regions of the gel were excised, subjected to limited proteolysis and analysed by mass spectrometry to identify peptides from proteins that were differentially enriched. The detection of at least two different peptides from a protein that is enriched in the LAT9991-PAL cross-linked samples when compared to (i) the un-crosslinked samples and (ii) LAT9991-PAL in the presence of excess LAT8881 (SEQ ID NO:1; YLRIVQCRSVEGSCGF) was considered a positive signature. LAT9991-PAL, LAT9993-PAL and LAT7771-PAL were also used. LAT9993 (SEQ ID NO:41) has the amino acid sequence SCRSRPVESSC.

Another assay addresses T2, human recombinant LANCL2 (Homo sapiens, UniProt Q9NS86).
T2 construct: human recombinant LANCL2 (amino acid residues 1-450); GST (N); purchased ABCAM ab163277; host or cells: wheat germ
T2 sequence (Q9NS86 1-450): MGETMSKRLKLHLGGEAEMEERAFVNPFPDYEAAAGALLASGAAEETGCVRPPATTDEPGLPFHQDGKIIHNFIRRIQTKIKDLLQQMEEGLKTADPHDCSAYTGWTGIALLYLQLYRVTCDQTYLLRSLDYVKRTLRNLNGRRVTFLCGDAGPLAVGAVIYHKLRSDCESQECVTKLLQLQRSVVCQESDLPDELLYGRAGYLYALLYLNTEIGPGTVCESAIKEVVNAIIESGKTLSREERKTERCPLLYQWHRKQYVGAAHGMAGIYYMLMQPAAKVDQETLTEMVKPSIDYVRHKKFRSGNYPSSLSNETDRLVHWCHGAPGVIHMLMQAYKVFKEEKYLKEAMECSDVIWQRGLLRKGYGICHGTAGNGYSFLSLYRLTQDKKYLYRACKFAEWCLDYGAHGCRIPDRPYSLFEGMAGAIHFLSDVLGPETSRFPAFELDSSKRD
Kind of assay: In-gel fluorescence: photolabelling of recombinant LANCL2 with PAL probe, with or without excess LAT8881. It is filed as binding. Particulars: in-gel fluorescence after UV cross-linking. How it is done: (§2) An in-gel fluorescence protocol was followed to determine whether the cyclic peptides bound to LANCL2 and LANCL3. Briefly:
(§3) 1. LANCL2 and LANCL3 Labelling, Assay on 96 Well Plate, Volume of the Reaction 40 μl in PBS
• 1 μg/well of human recombinant LANCL2 (amino acid residues 1-450; ABCAM catalog no. ab163277, ˜0.07 mg/ml; expressed in wheat germ and incorporating an N-terminal GST tag; UniProt Accession no: Q9NS86);
• Vehicle DMSO • ±LAT8881 (a cyclic peptide fragment of human growth hormone; SEQ ID NO:1) • SEQ ID NO:1 as competitor @ 50, 100 or 200 μM, pre-incubation 10 min, 4 μl of a stock solution 10-fold concentrated • ±LAT9991-PAL probes @ 1 μM, incubation 30 min at room temperature on a plate agitator (protected from light), 4 μl of a stock solution @10 μM
(§4) • Irradiation @ 365 nm 20 min (4° C., on a support containing ice) • Transfer 40 μl in a clean Eppendorf tube
(§5) • Reduction: DTT 10 mM, 30 min @ 56° C. • Alkylation: Iodoacétamide 30 mM, 45 min @ RT Click-iT AzideTamra of 60 μL samples
(§6) • Acetone Precipitation −20° C. ON • Dry pellet resuspended in 30 μL 1% SDS in 50 mM Tris-HCl pH 7.5 • Photolabeled LANCL1 was tagged with tetramethylrhodamine (TAMRA) azide @100 μM TAMRA azide by copper click chemistry using the Click-iT Protein Reaction Buffer Kit (ThermoFisher Scientific) for 30 minutes • Precipitation using the chloroform-methanol method, pellet was air-dried for 10 min at room temperature, resuspended in 30 μL SDS loading buffer (Bio Rad XT Sample Buffer containing 2.5% v/v 2-mercaptoethanol) and heated (60° C., 30 min)
as §1

Assay [1] relates to tissue homogenates of nerve from neuropathic animals. Kind of assay: PAL cross-linking to nerve tissue homogenates and gel separation. It counts as binding. An excerpt: Using a ligand driven approach, the present inventors utilized the photo-activatable cross-linking PAL from Evotec A.G. (Photo-Activated Labelling) technology that derivatizes the active cyclic peptides to allow UV-induced cross-linking to binding targets (described herein as peptide/SEQ ID NO:X-PAL). This allows subsequent detection in cells, gels of tissue isolates or in pull-down of the peptide/target complex for sequencing by mass spectroscopy (PALMS).
LAT9991-PAL was cross-linked to tissue homogenates of nerve from neuropathic animals.

The target of a further assay is T3, human recombinant LANCL3 (Homo sapiens, UniProt Q6ZV70).
T3 construct: human recombinant LANCL3 (amino acid residues 1-420); 10xHis (N); Myc (C); purchased ABCAM ab163277; host or cells: E. coli
Briefly: In-gel fluorescence: photolabelling of recombinant LANCL3 with PAL probe, with or without excess LAT8881. It is filed as binding. Particulars: in-gel fluorescence after UV cross-linking. How it is done: as §2, §3
• […] of human recombinant LANCL3 (amino acid residues 1-420; ABCAM catalog no. ab163277, ˜0.07 mg/ml; expressed in E. Coli and incorporating an N-terminal 10×His tag and a C-terminal Mvc tag; UniProt Accession no: Q6ZV70);
• Vehicle DMSO • ±LAT8881 (a cyclic peptide fragment of human growth hormone; SEQ ID NO:1) • SEQ ID NO:1 as competitor @ 50, 100 or 200 μM, pre-incubation 10 min, […], incubation 30 min at room temperature on a plate agitator (protected from light), 4 μl of a stock solution @10 μM
as §4, §5, §6, §1

LANCL1, sequence (Q9QX69 whole entry): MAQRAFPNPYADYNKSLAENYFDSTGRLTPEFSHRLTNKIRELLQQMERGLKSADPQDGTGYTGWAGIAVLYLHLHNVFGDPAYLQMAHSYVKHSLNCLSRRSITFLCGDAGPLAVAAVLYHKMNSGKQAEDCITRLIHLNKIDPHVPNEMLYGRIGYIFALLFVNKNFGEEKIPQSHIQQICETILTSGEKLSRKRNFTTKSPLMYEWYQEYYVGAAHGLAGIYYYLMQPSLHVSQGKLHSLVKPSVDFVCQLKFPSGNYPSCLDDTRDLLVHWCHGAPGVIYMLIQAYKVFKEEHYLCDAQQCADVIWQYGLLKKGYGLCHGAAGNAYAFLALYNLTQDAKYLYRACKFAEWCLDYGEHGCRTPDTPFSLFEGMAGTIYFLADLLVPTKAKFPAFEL
T1 sequence (O43813 with tags, fused parts or gaps): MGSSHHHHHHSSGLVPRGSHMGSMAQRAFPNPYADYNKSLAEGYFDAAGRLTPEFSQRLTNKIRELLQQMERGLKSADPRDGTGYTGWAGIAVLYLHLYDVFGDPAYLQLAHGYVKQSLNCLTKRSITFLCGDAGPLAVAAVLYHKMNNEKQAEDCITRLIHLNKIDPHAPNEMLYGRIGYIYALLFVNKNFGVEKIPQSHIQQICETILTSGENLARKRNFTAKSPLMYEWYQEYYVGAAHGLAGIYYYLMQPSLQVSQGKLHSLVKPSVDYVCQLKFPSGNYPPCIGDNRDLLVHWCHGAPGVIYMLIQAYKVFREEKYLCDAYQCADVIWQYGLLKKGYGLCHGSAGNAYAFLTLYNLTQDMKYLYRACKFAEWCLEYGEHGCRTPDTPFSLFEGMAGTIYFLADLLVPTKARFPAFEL
T3 sequence (Q6ZV70 whole entry, the tested form may be a part): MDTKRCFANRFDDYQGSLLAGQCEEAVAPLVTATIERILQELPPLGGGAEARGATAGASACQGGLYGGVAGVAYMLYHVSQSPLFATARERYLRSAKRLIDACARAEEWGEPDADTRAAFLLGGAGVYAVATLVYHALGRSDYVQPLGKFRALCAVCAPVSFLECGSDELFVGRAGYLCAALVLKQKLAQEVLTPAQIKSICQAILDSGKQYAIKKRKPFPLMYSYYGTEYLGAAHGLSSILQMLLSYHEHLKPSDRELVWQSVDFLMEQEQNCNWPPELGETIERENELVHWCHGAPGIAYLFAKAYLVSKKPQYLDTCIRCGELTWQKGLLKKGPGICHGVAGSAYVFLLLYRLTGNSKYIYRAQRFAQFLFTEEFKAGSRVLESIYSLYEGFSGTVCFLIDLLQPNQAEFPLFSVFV

For the substance “CRSVEGSCG (disulfide 1-8 (inferred)) [LAT9991]”, in the assay with DRG neurons, the “Block of LAT9991-PAL binding to neuropathic DRG by excess unlabeled peptide” value is recorded as “blocked”. Further, in the assay with human recombinant LANCL1 (probe LAT9991-PAL, excess unlabelled competitor), the “Inhibition of LAT9991-PAL binding to recombinant LANCL1 by excess competitor” value is listed as “inhibited”.

As to “LAT7771-PAL: cyclic peptide conjugate of LAT7771 (SEQ ID NO:52) with the PAL photo-activatable cross-linking group (CRIIHNNNC; disulfide 1-9 (inferred); also: ['PAL photo-activatable cross-linking group, structure and site not given here'])”, in the assay with LANCL1, the “LANCL1 bound / enriched in PAL probe cross-linked samples (mass spectrometry)” value was “enriched by several fold-changes; also recorded: bound to LANCL1”. For the same substance, the “Binding of PAL probe to recombinant LANCL1” value with human recombinant LANCL1 (in-gel fluorescence after UV (365 nm) cross-linking) is “bound to recombinant LANCL1”. For the same substance, in the assay with human recombinant LANCL2, the “Binding of PAL probe to recombinant LANCL2” value is “bound to recombinant LANCL2”. The “Cross-linking of PAL probe to tissue homogenates of nerve from neuropathic animals” value in assay [1] is listed as “shown to cross-link”. Moreover, the “Molecular weight ranges of targets stained after gel separation” value in assay [1] (PAL probe cross-linked to nerve homogenates) is “˜12-15 kD, ˜37 kD and ˜50 kD”.

On to “LAT9993-PAL: cyclic peptide conjugate of LAT9993 (SEQ ID NO:41) with the PAL photo-activatable cross-linking group (SCRSRPVESSC; disulfide 2-11 (inferred); also: ['PAL photo-activatable cross-linking group, structure and site not given here'])”, for which, in the assay with LANCL1, the “LANCL1 bound / enriched in PAL probe cross-linked samples (mass spectrometry)” value is reported as “enriched by several fold-changes; also recorded: bound to LANCL1”. Moreover, the “Cross-linking of PAL probe to tissue homogenates of nerve from neuropathic animals” value in assay [1] is “shown to cross-link”. The “Binding of PAL probe to recombinant LANCL3” value with human recombinant LANCL3 is on record as “bound to recombinant LANCL3”.
